In EP0672136B1, “POLYPEPTIDES, DERIVED FROM ENDONEXIN 2, HAVING HEPATITIS B VIRUS RECEPTOR ACTIVITY AND THEIR USE IN DIAGNOSTIC AND PHARMACEUTICAL COMPOSITIONS” (priority 1992, dated 1994):

Target: T1, major HBsAg (Hepatitis B virus genotype A2 subtype adw2, UniProt P03141)
T1 construct: purchased Merck Sharp and Dohme Laboratories (gift of Dr. W. J. Miller, not bought); host or cells: yeast
Assay: Binding of radiolabeled endonexin II to immobilized major HBsAg in the presence of endonexin II peptide fractions (F-peak inhibition assay)
Parameters: species or system HBV
Details: fractions of acid-hydrolysed human liver endonexin-II; triplicate; Figure 23A
Protocol: Purified endonexin-II was treated according to the method as described in example 3. (Hydrolysis in 3% formic acid at 112°C for 4h). After treatment with formic acid, the protein digest was separated by reversed phase HPLC on a Vydac C-4 column (2.1 x 250 mm, Hesperia, CA, USA) as described in example 3. Peptide peaks were registered on a chart recorder and collected manually.
Binding experiments were performed according to the method as described in example 1 and 5. However, binding of radiolabeled endonexin-II to immobilized major HBsAg was carried out in the presence of individual peak fractions of unlabeled digested human liver endonexin-II (see above). The experiment was performed in triplicate. […] Therefore, these peptide was considered as one of the important major HBsAg-binding epitopes on endonexin-II. By sequencing an identical peak fraction in a parallel experiment, peptides corresponding to peaks F and S were determined as amino acids 266 to 280 (peak F, DHTLIRVMVSRSEID) and amino acids 92-138 (peak S): […]) of human endonexin II (numbering according to Kaplan et al., 1988).

T1 sequence (P03141 175-400): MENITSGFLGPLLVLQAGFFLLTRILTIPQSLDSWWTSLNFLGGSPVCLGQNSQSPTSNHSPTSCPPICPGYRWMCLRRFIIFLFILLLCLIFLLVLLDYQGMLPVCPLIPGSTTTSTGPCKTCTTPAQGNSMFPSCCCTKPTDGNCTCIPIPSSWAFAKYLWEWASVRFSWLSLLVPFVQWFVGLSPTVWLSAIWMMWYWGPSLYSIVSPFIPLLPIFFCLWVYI

**Q.** With “DEEKFITIFGTRSVSHLRKVFDKYMTISGFQIEETI [peak L, region encompassing amino acids 190 to 225 of human endonexin]” as the sequence, how does the “inhibition of binding of radiolabeled endonexin-II to major HBsAg by HPLC peak fraction” value read?
**A.** slightly lower binding inhibition capacity
